pKd: −log10 of the molar value.
Assays:
[1] = target: FcγRIIIa on natural killer cells in human PBMC (human) (UniProt P08637); experiment: cell-based or functional assay
[2] = target: His-tagged biotinylated human FcγRIIIa allotype 158V monomeric ECD (Sino Biological) (human) (UniProt P08637); experiment: BLI, steady state; responses did not reach a plateau
[3] = target: His-tagged biotinylated murine FcγRIV monomeric ECD (Sino Biological) (murine); experiment: as above
[4] = target: His-tagged human FcγRIa monomeric ECD (Sino Biological) (human) (UniProt P12314); experiment: BLI, 1:1 global fit; analysis not optimal, <4 fits
[5] = target: His-tagged biotinylated human FcγRIIIa allotype 158V monomeric ECD (Sino Biological) (human) (UniProt P08637); experiment: BLI, steady state; responses did not reach a plateau; remark: listed apart in the source
[6] = target: His-tagged biotinylated murine FcγRIV monomeric ECD (Sino Biological) (murine); experiment: BLI
[7] = target: His-tagged murine FcγRI monomeric ECD (Sino Biological) (murine) (UniProt P26151); experiment: BLI, FcγR on Ni-NTA sensor, 1:1 global fit
[8] = target: His-tagged murine FcγRI monomeric ECD (Sino Biological) (murine) (UniProt P26151); experiment: BLI, 1:1 global fit; analysis not optimal, <4 fits
[9] = target: His-tagged murine FcγRI monomeric ECD (Sino Biological) (murine) (UniProt P26151); experiment: BLI
[10] = target: His-tagged human FcγRIa monomeric ECD (Sino Biological) (human) (UniProt P12314); experiment: BLI, FcγR on Ni-NTA sensor, 1:1 global fit
[11] = target: His-tagged cynomolgus FcγRI monomeric ECD (R&D Systems) (cynomolgus (Macaca fascicularis)); experiment: BLI, FcγR on Ni-NTA sensor, 1:1 global fit
[12] = target: His-tagged biotinylated human FcγRIIIa allotype 158V monomeric ECD (Sino Biological) (human) (UniProt P08637); experiment: BLI, FcγR on SA sensor, steady state
[13] = target: His-tagged biotinylated cynomolgus FcγRIIb monomeric ECD (Sino Biological) (cynomolgus (Macaca fascicularis)); experiment: BLI, FcγR on SA sensor, steady state
[14] = target: His-tagged biotinylated cynomolgus FcγRIIa monomeric ECD (Sino Biological) (cynomolgus (Macaca fascicularis)); experiment: BLI, FcγR on SA sensor, steady state
[15] = target: His-tagged biotinylated murine FcγRIII monomeric ECD (Sino Biological) (murine) (UniProt P08508); experiment: BLI, FcγR on SA sensor, steady state
[16] = target: His-tagged biotinylated cynomolgus FcγRIII monomeric ECD (ACROBiosystems) (cynomolgus (Macaca fascicularis)) (UniProt Q8SPW2); experiment: BLI, FcγR on SA sensor, steady state
[17] = target: His-tagged biotinylated murine FcγRIIb monomeric ECD (Sino Biological) (murine) (UniProt P08101); experiment: BLI, FcγR on SA sensor, steady state
[18] = target: His-tagged biotinylated murine FcγRIV monomeric ECD (Sino Biological) (murine); experiment: BLI, FcγR on SA sensor, steady state
[19] = target: His-tagged biotinylated human FcγRIIa allotype 131H monomeric ECD (Sino Biological) (human) (UniProt P12318); experiment: BLI, FcγR on SA sensor, steady state
[20] = target: His-tagged biotinylated human FcγRIIb monomeric ECD (Sino Biological) (human) (UniProt P31994); experiment: BLI, FcγR on SA sensor, steady state
His-tagged biotinylated human FcγRIIb monomeric ECD (Sino Biological) (human), sequence (P31994 43-217): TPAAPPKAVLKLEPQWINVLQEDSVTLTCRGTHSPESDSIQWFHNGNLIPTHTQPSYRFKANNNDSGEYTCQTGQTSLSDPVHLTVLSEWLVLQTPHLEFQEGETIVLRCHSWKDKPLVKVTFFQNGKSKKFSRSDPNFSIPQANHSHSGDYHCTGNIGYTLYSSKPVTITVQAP

His-tagged human FcγRIa monomeric ECD (Sino Biological) (human), sequence (P12314 16-292): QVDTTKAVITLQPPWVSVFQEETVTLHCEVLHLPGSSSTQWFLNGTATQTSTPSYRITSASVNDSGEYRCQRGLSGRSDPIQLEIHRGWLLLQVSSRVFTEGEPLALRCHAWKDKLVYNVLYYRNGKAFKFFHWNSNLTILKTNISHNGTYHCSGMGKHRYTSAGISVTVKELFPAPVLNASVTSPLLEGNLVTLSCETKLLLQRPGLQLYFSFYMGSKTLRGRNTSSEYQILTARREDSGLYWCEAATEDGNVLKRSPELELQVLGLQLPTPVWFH
His-tagged murine FcγRI monomeric ECD (Sino Biological) (murine), sequence (P26151 25-297): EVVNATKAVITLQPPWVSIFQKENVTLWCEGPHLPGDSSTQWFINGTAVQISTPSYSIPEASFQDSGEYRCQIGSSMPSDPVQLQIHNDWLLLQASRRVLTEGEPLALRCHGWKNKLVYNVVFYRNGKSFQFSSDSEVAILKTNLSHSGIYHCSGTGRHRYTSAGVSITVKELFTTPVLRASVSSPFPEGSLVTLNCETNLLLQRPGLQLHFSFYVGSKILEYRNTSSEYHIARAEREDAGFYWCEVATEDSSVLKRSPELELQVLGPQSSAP
His-tagged biotinylated human FcγRIIIa allotype 158V monomeric ECD (Sino Biological) (human), sequence (P08637 17-208 F176V): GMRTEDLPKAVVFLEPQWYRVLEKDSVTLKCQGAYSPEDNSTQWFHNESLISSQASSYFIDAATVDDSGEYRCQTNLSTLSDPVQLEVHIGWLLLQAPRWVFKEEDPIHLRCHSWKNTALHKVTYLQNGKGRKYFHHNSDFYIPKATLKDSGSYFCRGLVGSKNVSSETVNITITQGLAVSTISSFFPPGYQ
His-tagged biotinylated murine FcγRIV monomeric ECD (Sino Biological) (murine), sequence (A0A0B4 entry or part of it limits assumed): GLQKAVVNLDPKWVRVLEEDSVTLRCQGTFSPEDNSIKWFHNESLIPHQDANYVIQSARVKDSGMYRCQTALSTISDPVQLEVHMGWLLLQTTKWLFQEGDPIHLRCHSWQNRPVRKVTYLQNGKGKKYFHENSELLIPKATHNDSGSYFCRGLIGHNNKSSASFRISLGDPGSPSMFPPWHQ
His-tagged biotinylated murine FcγRIIb monomeric ECD (Sino Biological) (murine), sequence (P08101 30-210): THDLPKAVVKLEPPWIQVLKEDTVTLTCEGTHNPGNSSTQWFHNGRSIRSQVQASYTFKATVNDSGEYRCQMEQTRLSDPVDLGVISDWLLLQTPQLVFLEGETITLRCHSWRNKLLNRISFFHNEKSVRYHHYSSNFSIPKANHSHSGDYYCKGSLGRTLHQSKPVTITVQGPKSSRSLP
His-tagged biotinylated murine FcγRIII monomeric ECD (Sino Biological) (murine), sequence (P08508 31-215): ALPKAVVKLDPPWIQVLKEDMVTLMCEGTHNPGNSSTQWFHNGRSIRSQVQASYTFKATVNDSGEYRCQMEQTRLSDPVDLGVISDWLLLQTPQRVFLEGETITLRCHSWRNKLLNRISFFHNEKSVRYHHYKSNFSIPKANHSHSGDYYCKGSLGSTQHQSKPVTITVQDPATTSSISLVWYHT
FcγRIIIa on natural killer cells in human PBMC (human), sequence (P08637 17-254): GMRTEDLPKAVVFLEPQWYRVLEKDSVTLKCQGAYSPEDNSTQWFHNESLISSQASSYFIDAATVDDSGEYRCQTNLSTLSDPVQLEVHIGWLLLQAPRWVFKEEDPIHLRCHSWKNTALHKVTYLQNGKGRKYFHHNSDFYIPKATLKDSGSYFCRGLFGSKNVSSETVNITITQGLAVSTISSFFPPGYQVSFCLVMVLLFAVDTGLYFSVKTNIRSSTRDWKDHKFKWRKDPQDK
His-tagged biotinylated human FcγRIIa allotype 131H monomeric ECD (Sino Biological) (human), sequence (P12318 34-217): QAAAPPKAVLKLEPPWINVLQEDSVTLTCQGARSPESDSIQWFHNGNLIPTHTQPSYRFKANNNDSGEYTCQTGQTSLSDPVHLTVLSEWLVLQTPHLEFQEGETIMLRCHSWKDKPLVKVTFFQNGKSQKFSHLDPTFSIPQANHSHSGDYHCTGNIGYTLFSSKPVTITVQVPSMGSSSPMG
His-tagged biotinylated cynomolgus FcγRIII monomeric ECD (ACROBiosystems) (cynomolgus (Macaca fascicularis)), sequence (Q8SPW2 17-208): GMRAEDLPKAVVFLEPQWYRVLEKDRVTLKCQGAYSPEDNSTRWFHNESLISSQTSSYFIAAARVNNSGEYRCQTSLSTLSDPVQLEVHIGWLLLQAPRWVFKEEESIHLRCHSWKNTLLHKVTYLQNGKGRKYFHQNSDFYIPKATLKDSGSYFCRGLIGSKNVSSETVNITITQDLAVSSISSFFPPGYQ

Row | Substance | pKd [7] | koff [7] [s⁻¹] | kon [7] [M⁻¹ s⁻¹] | pKd [8] | koff [8] [s⁻¹] | kon [8] [M⁻¹ s⁻¹] | fold reduction of binding affinity vs wild-type IgG2a [9] [fold] | pKd [10] | pKd [12] | pKd [15] | pKd [17] | pKd [18] | other results
1 | anti-human CD20 IgG1-L234F-L235E-G236R-K409R (antibody) | – | – | – | – | – | – | – | – | – | – | – | – | reduction of ADCC of Raji cells [1]: 69%
2 | murine anti-human CD20 IgG2a-L234A-L235A (antibody) | 6.62 | 0.00231 | 9730 | – | – | – | – | – | – | – | – | – | pKd [2]: 4.93; pKd [3]: 4.86; pKd [4]: 5.44; koff [4]: 0.0163 s⁻¹; kon [4]: 4530 M⁻¹ s⁻¹; pKd [5]: 4.86; fold reduction vs wt IgG2a [6]: 100 fold
3 | murine anti-human CD20 IgG2a-L234A-L235A-P329G (antibody) | – | – | – | 6.44 | 0.002 | 5500 | 100 | – | – | – | – | – | –
4 | wild-type murine anti-human CD20 IgG2a antibody | 8.42 | 0.000619 | 162000 | – | – | – | – | 8.90 | 5.71 | 5.16 | 5.19 | 6.84 | koff [10]: 0.00039 s⁻¹; kon [10]: 311000 M⁻¹ s⁻¹; pKd [19]: 5.73; pKd [20]: 4.77

The next lines start with results.

Row | pKd [7] | koff [7] [s⁻¹] | kon [7] [M⁻¹ s⁻¹] | pKd [8] | koff [8] [s⁻¹] | kon [8] [M⁻¹ s⁻¹] | fold reduction of binding affinity vs wild-type IgG2a [9] [fold] | pKd [10] | pKd [12] | pKd [15] | pKd [17] | pKd [18] | Substance | other results
5 | – | – | – | 6.37 | 0.00227 | 5300 | 100 | – | – | – | – | – | murine anti-human CD20 IgG2a-L234F-L235E-G236R (antibody) | –
6 | 6.91 | – | – | – | – | – | – | 8.74 | 6.25 | 5.13 | 5.55 | 5.98 | wild-type anti-human CD20 IgG1 antibody (IgG1-CD20) | pKd [11]: 9.20; pKd [13]: 5.41; pKd [14]: 5.37; pKd [16]: 6.38

Reference: patent US20240150484A1
